T1: amphyphisin SH3 (AMPH_HUMAN), P49418
T1 chain: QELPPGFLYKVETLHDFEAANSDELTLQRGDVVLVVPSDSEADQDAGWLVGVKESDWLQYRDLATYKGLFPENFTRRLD


How the values were obtained:
[1] = molecular target: endophilin SH3 (SH3G2_HUMAN), Q99962; assay: SPOT array
[2] = molecular target: T1, amphyphisin SH3 (AMPH_HUMAN), P49418; assay: SPOT array

| normalised SPOT signal, Boehringer light units (BLU); mean over the file's lines of this peptide [1] | normalised SPOT signal, Boehringer light units (BLU); mean over the file's lines of this peptide [2] | Binder |
| --- | --- | --- |
| 104 | 3170 | EAQFFLRPLRSYGD [P78357 768-781] |
| 116 | 26.9 | AEMTFRRPAQAFPV [P07949 672-685] |
| 101 | 78.7 | DTPPPSRPEKKKAD [P12111 1626-1639] |
| 72.7 | 4540 | DVPAFVRPARVEPT [Q9C0A3 802-815] |
| 291 | 672 | EDALPTRPKKRARS [Q9UPW0 160-173] |
| 22.8 | 483 | EDKALPRPIRPHRN [O75163 272-285] |
| 53.1 | 15.7 | DVIIPAKPPVSFFS [Q96K45 88-102] |
| 74.7 | 34.7 | EDAKLRRPMVIEII [Q9NZ29 33-46] |
| 54.5 | 43.9 | DVVPPIKPPKEIED [O14967 255-269] |
| 46.9 | 43.4 | DQIPPNKPPWFDQP [O00302 379-393] |
| 192 | 325 | DRPIIDRPIRGRGG [Q9Y367 154-167] |
| 211 | 59 | EASIFRRPYYVSHF [O15360 570-583] |
| 2630 | 9010 | DVLSPLRPSRRHFP [Q12756 1091-1104] |
| 238 | 45 | DPSPPRRPQHNSSG [Q96LS7 199-212] |

More lines, now with the values behind:

| Binder | normalised SPOT signal, Boehringer light units (BLU); mean over the file's lines of this peptide [1] | normalised SPOT signal, Boehringer light units (BLU); mean over the file's lines of this peptide [2] |
| --- | --- | --- |
| DRWDPTRPPRATDT [O95180 738-751] | 62.2 | 360 |
| EDFVPFRPRRSPRM [Q14202 277-290] | 2630 | 20100 |
| AERPPSKPPPVELR [Q14203 913-927] | 67.4 | 70.7 |
| DTKALRRPKSAELH [P07949 469-482] | 63 | 25.9 |
| DPRRPKRPRTILTT [O60663 192-205] | 948 | 183 |
| EASSPARPSKHSVG [Q92932 121-134] | 211 | 231 |
| DTLNIRRPLVKMVY [Q9P0U0 373-386] | 60.9 | 24.3 |
| EADSIPRPYRSQQS [O15015 40-53] | 0 | 10.4 |
| DRFPLKRPRYEDSD [O94913 808-821] | 144 | 129 |
| DTTSPSRPPGGPII [Q9Y2E5 978-992] | 72.7 | 36.5 |
| DTYRPKRPTTLNLF [Q9UQF2 154-167] | 1540 | 75.1 |
| AEGPPKRPGGSSPL [P48634 1665-1678] | 291 | 50.3 |
| DPRTPRRPRSARAG [Q9H901 24-37] | 203 | 59.5 |
| EALKLRRPPDASGA [P24530 73-86] | 42.8 | 35.9 |
| DSGQPRRPGQSPLS [O75111 1249-1262] | 80.5 | 20.2 |
| DRPKPPRPPTGRPS [P51512 320-334] | 7650 | 574 |
| AEILPRRPPTPEAQ [Q9BTK6 128-142] | 32.7 | 57.4 |
| DVTDPKRPLSFGVT [Q9P2C6 232-245] | 37.5 | 1.7 |
| EASGPERPPALLQE [Q03431 573-587] | 62.6 | 52.1 |
| EDEEPKRPLPRKQS [Q9BZ71 330-343] | 15.6 | 35.6 |
| DSPSFSRPSKYSPG [O14905 71-84] | 57.1 | 30.7 |
| DPQAPRRPPSSFLL [Q8WW32 89-102] | 1200 | 108 |
| EALEIPRPLRALDQ [Q9HCK4 1228-1241] | 0 | 0 |
| DPSGLPRPQKIPIS [Q9H591 280-293] | 112 | 149 |
| DSPLPRRPAFSGTS [Q9HBB0 94-107] | 971 | 11.5 |
| EAGSPRRPRRQRSD [Q15015 1069-1082] | 377 | 8310 |
| EARKPAKPPVSPKP [Q8WXD9 1216-1230] | 1650 | 53.6 |
| DTALLPRPERRSSL [Q9Y2E3 518-531] | 65.4 | 112 |

Source: PMC314469, “Protein Interaction Networks by Proteome Peptide Scanning” (PLoS Biology, 2004)
